Source: patent publication US20240294651A1 (KYMAB, published 2024)
Residue numbers refer to the chain shown, from its start.

B1: CL-82558 Fab fragment (Fab, V domains shown)
VH: QVQLQESGPGLVKPSQTLSLTCTVSGGSISSGGYYWSWIRQVPGKGLEWIGYISYSGNTFYSPSLKSRVTISVDTSENKFSLRLTSVTAADTAVYFCARDRRIPMLRGVKGYYYGLDVWGQGTTVTVSS
VL: DIVMTQSPLSLPVIPGEPASISCRSSQSLLHRNGYKYLDWYLQKPGQSPQLLIYLGSNRASGVPARFSGSGSGTDFTLKISRVEAEDVGVYYCMQALQTPWTFGQGTKVEIK
notes: Purified Fab fragment
B2: CL-82571 (antibody, human IgG4 S228P, kappa, V domains shown)
VH: EVQLVESGGGLVQPGGSLKLSCAASGFTFSGSAMHWVRQASGKGLEWVGRIRSKANKYATAYAASVKGRFTISRDDSKNTAYVQMKSLKTEDTAVYYCTWELSNYDILTGFYYGMDVWGQGTTVTVSS
VL: DIQMTQSPSTLSASVGDRVTITCRASQSISNWLAWYQQKPGKAPKVLIYKASSLESGVPSRFSGSGSGTEFTLTISSLQPDDFATYYCQQYNSFSWTFGQGTKVEIKR
notes: Tested in human IgG4-PE format
B3: CL-82473 (antibody, human IgG4 S228P, kappa, V domains shown)
VH: QVQLVESGGGVVQPGRSLRLSCAASGFTFSSYGMHWVRQAPGKGLEWVTVILYGGSNKYYADSVKGRFTISRDNSKNTLYLQMNSLRAEDTAVYYCARGMLTYYYSSGFDYWGQGTLVTVSS
VL: not shown
notes: as for B2
B4: CL-82580 (antibody, human IgG4 S228P, kappa, V domains shown)
VH: QVQLVQSGAEVKKPGASVKVSCRASGYTFTNYDINWVRQATGQGLEWMGWMNPNSGNTGYAQKFQGRVTMTRNTSISAAYMELSSLRSEDTAVYYCARGRGYYGSGSRYRGYYYYGMDVWGQGTTVTVSS
VL: not shown
notes: as for B2
B5: CL-82551 (antibody, human IgG4 S228P, kappa, V domains shown)
VH: B4 VH with R23K, N31S, A78T, R108H, M117L
VL: B2 VL with N31S, E55K, I75V, F94Y
notes: as for B2
B6: CL-82495 (antibody, human IgG4 S228P, kappa, V domains shown)
VH: QVQLVESGGGVVQPGRSLRLSCEASGFTLSSYGMHWVRQAPGKGLEWVAVIWNDGSNKYSADSVKGRFTISRDNSKNTLYLQMNRLRAEDTAVYYCARGGGYYGSGSHYRGYYYYGMDVWGQGTTVTVSS
VL: DIQMTQSPSSLSASVGDRVTITCRASQGIRNDLGWYQQKPGKAPKRLIYAASSLQSGVPSRFSGSGSGTEFTLTISSLQPEDFATYYCLQHNSYPWTFGQGTKVEIKR
notes: as for B2
B7: CL-82562 (antibody, human IgG4 S228P, kappa, V domains shown)
VH: QVQLVESGGGVVQPGRSLRLSCTASGFTFSNYAMHWVRQAPGKGLEWVAVISYDGSNKYCADSVKGRFTISRDNSKNTLYLQMNSLRAEDTAVYYCARGPLARRHYYYYGMDVWGQGTTVTVSS
VL: B6 VL with A50G, W96R
notes: as for B2
B8: CL-148712 (antibody, human IgG4 S228P, kappa, V domains shown)
VH: EVQLVESGGDLVQPGGSLRLSCAASGFTFYSYAMNWVRQAPGKGLKWVSGISGSGDITYYADSVKGRFTISRDNSKNTLYLQMHSLRAEDTAVYYCAKGQLERRYYKYYGMDVWGQGTTVTVSS
VL: B6 VL with S26N, A50G, Q55K, H91Q, W96L, Q100G
B9: CL-82523 (antibody, human IgG4 S228P, kappa, V domains shown)
VH: EVQLVESGGGLVQPGGSLRLSCAASGFTFSNYAMSWVRQAPRKGLEWVSVISGSGGRTNYAGSVKGRFSITRDNSKNTLYLQMNSLRAEDTAVYYCVKGQLERRYYYYYGMDVWGQGITVTVSS
VL: B6 VL with W96L, Q100G
notes: as for B2
B10: CL-82541 (antibody, human IgG4 S228P, kappa, V domains shown)
VH: B1 VH with G33R, V42L, T59P, K79Q, R83K, T85S, F96Y, L116M
VL: not shown
notes: as for B2
B11: CL-82455 (antibody, human IgG4 S228P, kappa, V domains shown)
VH: QVQLVESGGGVVQPGRSLRLSCAASGFTFNNYGMHWVRQAPGKGLEWVAVIWNDGSNKYYGDSVKGRFTISRDNSKNTLYLQMNSLRAEDTAVYYCARGGGYYGSGKHYRGYYYNGMGVWGQGTPVTVSS
VL: EIVMTQSPATLSVSPGERATLSCRASQSVSSNLAWYQQKPGQAPRLLIYGASTRATGIPARFSGSGSGTEVTLTISSLQSEDFTIYYCQQYNNWPWTFGQGTKVDIKR
B12: CL-82583 (antibody, human IgG4 S228P, kappa)
heavy: not shown
light: DIQMTQSPSSLSASVGDRVTITCRASQGVRDDLGWYQQKPGKAPKRLIYAASSLQSGVPSRFSGSGSGTEFTLTISSLQPEDFATYYCLQHNSYPFTFGPGTKVDIKRTVAAPSVFIFPPSDEQLKSGTASVVCLLNNFYPREAKVQWKVDNALQSGNSQESVTEQDSKDSTYSLSSTLTLSKADYEKHKVYACEVTHQGLSSPVTKSFNRGEC
notes: as for B2
B13: CL-82556 (antibody, human IgG4 S228P, kappa, V domains shown)
VH: QVQLVESGGGVVQPGRSLRLSCAASGFTFYSYGMHWVRQAPGKGLEWVAVIWYGGTNKYYADSVKGRFTISRDNSKNTLYLQMNSLTAEDTAVYYCARGQLERRRGGLNIWGQGTMVTVSS
VL: B6 VL with I29V, N31D, S53N, S76G, W96F, Q100P, E105D
notes: as for B2
B14: CL-82577 (antibody, human IgG4 S228P, kappa, V domains shown)
VH: QVQLQESGPGLVKPSQTLSLTCTVSGGSISSGGYYWTWIRQLPGKGLEWIGYMSYSGNTFYSPSLKSRFTISGDTSENQFSLKVNSVTSADTAIYYCARDRRIPMLRGIKGYYYGMDVWGQGTTVTVSS
VL: not shown
notes: as for B2
B15: CL-82517 (antibody, human IgG4 S228P, kappa, V domains shown)
VH: EVQLVESGGGLVKPGGSLRLSCAASGFTFSSYSMNWVRQAPGKGLEWVSSISSSRRYIYYADSVKGRFTISRDNAKNSLYLQMNSLRAEDTAVYYCARAYGQVAPYYYYGMDVWGQGTTVTVSS
VL: AIQLTQSPSSLSASVGDRVTITCRASQGISSALAWYQQKPGKAPKLLIYDASSLESGVPSRFSGSGSGTDFTLTISSLQPEDFATYYCQQFNSYPLTFGGGTKVEIKR
notes: as for B2

Target: T1, biotinylated CXCR4-virus like particle (Integral Molecular, Lot INT-1793B) (human, UniProt P61073 1-352, VLP biotinylated, sites not stated)
T1 construct: also called hCXCR4 VLP; CXCR4 VLP
Experiment: SPR (Biacore 8K), biotinylated CXCR4 VLP captured on SA chip, Fab as analyte, 25 C, 1:1 model

| Binder | Kd | koff | kon |
| --- | --- | --- | --- |
| B1 | 0.67 nM | 0.00155 s⁻¹ | 2.32e+06 M⁻¹ s⁻¹ |

Target: T2, human CXCR4 (cell-expressed) (human, UniProt P61073 1-352)
Experiment: cell-based or functional assay

| Binder | % Max Inhibition, beta-arrestin reporter assay, Tango CXCR4-bla U2OS cells | IC50, beta-arrestin reporter assay, Tango CXCR4-bla U2OS cells, 30 nM CXCL12 |
| --- | --- | --- |
| B2 | 85.6% | 1 nM |
| B3 | 85% | > 120 nM |
| B4 | 100% | 1.15 nM |
| B5 | 98.2% | 1.56 nM |
| B6 | 98.9% | 2.08 nM |
| B7 | 101% | 0.52 nM |
| B8 | 98.4% | 0.19 nM |
| B9 | 101% | 0.08 nM |
| B10 | 97.2% | 0.38 nM |
| B11 | 86.8% | 9.12 nM |
| B12 | 94% | 0.17 nM |
| B13 | 101% | 0.14 nM |
| B14 | 102% | 0.24 nM |
| B15 | 89.6% | 0.84 nM |

Target: T3, terbium-labelled SNAP-CXCR4 on HEK-293 cells (Cisbio C1TT1CXCR4) (human, UniProt P61072 1-352 (Pan troglodytes entry), terbium label on the SNAP tag)
T3 construct: Bought assay-ready cells; also called CXCR4 expressing cells; not shown: SNAP tag
Experiment: TR-FRET (Tag-lite) competition with AlexaFluor 647-CXCL12 on terbium-labelled SNAP-CXCR4 HEK-293 cells

| Binder | % Max Inhibition | IC50 |
| --- | --- | --- |
| B2 | 96% | 1.47 nM |
| B3 | 98% | 1.2 nM |
| B4 | 97% | 1.41 nM |
| B5 | 98% | 1.21 nM |
| B6 | 100% | 1.71 nM |
| B7 | 100% | 0.86 nM |
| B9 | 101% | 0.55 nM |
| B10 | 97% | 1.16 nM |
| B12 | 98% | 0.72 nM |
| B13 | 99% | 0.7 nM |
| B14 | 98% | 0.92 nM |
| B15 | 96% | 1.06 nM |

Target: T2, human CXCR4 (cell-expressed)
Experiment: cell-based or functional assay
Remark: another data set of the same source

| Binder | % Max Inhibition, cAMP HTRF assay, CXCR4 BacMam HEK-293 cells | IC50, cAMP HTRF assay, CXCR4 BacMam HEK-293 cells, 5.5 nM CXCL12 |
| --- | --- | --- |
| B2 | 88% | 44 nM |
| B3 | – | > 1000 nM |
| B4 | 90% | 46 nM |
| B5 | 92% | 39 nM |
| B6 | 96% | 27 nM |
| B7 | 92% | 99 nM |
| B8 | 105% | 19 nM |
| B9 | 87% | 24 nM |
| B10 | 87% | 74 nM |
| B11 | 103% | 91 nM |
| B12 | 91% | 28 nM |
| B13 | 94% | 17 nM |
| B14 | 92% | 29 nM |
| B15 | 79% | 34 nM |
